System: CCCCCCCCCCCCCCCC(=O)SCCNC(=O)CCNC(=O)[C@H](O)C(C)(C)COP(=O)(O)OP(=O)(O)OC[C@H]1O[C@@H](n2cnc3c(N)ncnc32)[C@H](O)[C@@H]1OP(=O)(O)O
Test: purified protein

zDHHC9 (Homo sapiens)
Km: 45 ± 4 µM

Reference: PMC6445550
